Test [1] concerns the target Taf14 YEATS domain (construct of the fluorescence assay) (yeast) (UniProt P35189). The test is described as follows: other fluorescence titration.
The target in test [2] is T1, Taf14 YEATS domain (residues 1-137) (yeast, UniProt P35189 1-137).
T1 sequence (looked up): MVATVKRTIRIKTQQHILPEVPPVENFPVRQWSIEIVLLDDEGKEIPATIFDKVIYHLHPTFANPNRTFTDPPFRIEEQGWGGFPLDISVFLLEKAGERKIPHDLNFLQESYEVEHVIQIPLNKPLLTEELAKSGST
Kind of test: crystal structure.

For test [3], the target named is T2, Taf14 YEATS domain, Taf14 (1-132), uniformly 15N-labeled (yeast, UniProt P35189 1-132).
T2 sequence (looked up): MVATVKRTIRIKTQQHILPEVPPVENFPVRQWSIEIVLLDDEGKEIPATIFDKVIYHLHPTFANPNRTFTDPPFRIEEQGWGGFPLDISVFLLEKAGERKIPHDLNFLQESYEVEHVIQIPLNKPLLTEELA
Kind of test: NMR titration.

No end group written: not given here. *: point of attachment. Crotonyl(E) = C/C=C/C(=O)*

“H3K9cr5-13 peptide (residues 5-13 of H3, crotonylated at lysine 9) (from UniProt P61830 6-14)”: the Kd (as a rule, the concentration at which binding is half-saturated) in test [1] came to 9.5 µM.

B1: H3K9cr5-13 peptide (residues 5-13 of H3, crotonylated at lysine 9) (peptide, UniProt P61830 6-14, looked up)
peptide: QTARK(Crotonyl(E))STGG
For the molecule B1, the binding result in test [2] and in test [3] was “binds” in each case.

B2: H3K9ac5-13 peptide (residues 5-13 of H3, acetylated at lysine 9) (peptide, UniProt P61830 6-14, looked up)
peptide: QTARK(Ac)STGG
B2: the binding result in test [3] is recorded as “binds”.

The values are drawn from article PMC4871749 (Nature chemical biology, 2016).
